Test results from IntAct's records for PubMed 15028672.

Biological target: crx_bovin CRX (UniProt Q9XSK0)
Sequence (Q9XSK0 whole entry): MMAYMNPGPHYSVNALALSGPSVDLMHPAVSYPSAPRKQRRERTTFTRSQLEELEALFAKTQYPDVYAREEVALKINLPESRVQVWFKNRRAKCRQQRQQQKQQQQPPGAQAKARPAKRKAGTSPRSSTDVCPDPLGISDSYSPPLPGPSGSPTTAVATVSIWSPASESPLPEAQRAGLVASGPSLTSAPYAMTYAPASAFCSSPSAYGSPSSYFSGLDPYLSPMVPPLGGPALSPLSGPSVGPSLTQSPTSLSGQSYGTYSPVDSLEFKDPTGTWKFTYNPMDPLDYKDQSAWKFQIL

Sequence of Retina and anterior neural fold homeobox protein 2 (Bos taurus (Bovine)), Q7YRX0 G137R (Q7YRX0 whole entry G137R): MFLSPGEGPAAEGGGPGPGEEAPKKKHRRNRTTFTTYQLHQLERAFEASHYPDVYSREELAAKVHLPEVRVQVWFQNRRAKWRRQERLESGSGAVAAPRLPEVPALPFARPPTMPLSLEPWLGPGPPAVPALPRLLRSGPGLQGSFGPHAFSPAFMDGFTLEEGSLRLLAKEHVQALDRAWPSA

effect of a mutation on the interaction: decreasing interaction
Substance: Retina and anterior neural fold homeobox protein 2 (Bos taurus (Bovine)), Q7YRX0 G137R
